From patent US20050233963A1 (priority 2000, published 2005)

B1: C 1/2: C-terminal half of UBP (a.a. 145-313) (protein)
chain: VQDCERAICIDPAYSKAYGRMGLALSSLNKHVEAVAYYKKALELDPDNETYKSNLKIAELKLREAPSPTGGVGSFDIAGLLNNPGFMSMASNLMNNPQIQQLMSGMISGGNNPLGTPGTSPSQNDLASLIQAGQQFAQQMQQQNPELIEQLRSQIRSRTPSASNDDQQE
modifications: left off: a dimerising Fc or GST
B2: FTPR: UBP fragment containing TPR 2-4 with flanking charged residues (a.a. 81-209) (protein)
chain: TPPSEEDSAEAERLKTEGNEQMKVENFEAAVHFYGKAIELNPANAVYFCNRAAAYSKLGNYAGAVQDCERAICIDPAYSKAYGRMGLALSSLNKHVEAVAYYKKALELDPDNETYKSNLKIAELKLREA
B3: TPR 2-4 (protein)
chain: KTEGNEQMKVENFEAAVHFYGKAIELNPANAVYFCNRAAAYSKLGNYAGAVQDCERAICIDPAYSKAYGRMGLALSSLNKHVEAVAYYKKALELDPDNETY
modifications: left off: a dimerising Fc or GST
B4: N 1/2: N-terminal portion of UBP (a.a. 1-145) (protein)
chain: MDNKKRLAYAIIQFLHDQLRHGGLSSDAQESLEVAIQCLETAFGVTVEDSDLALPQTLPEIFEAAATGKEMPQDLRSPARTPPSEEDSAEAERLKTEGNEQMKVENFEAAVHFYGKAIELNPANAVYFCNRAAAYSKLGNYAGAV
modifications: left off: a dimerising Fc or GST

What was measured:
hsc70 = target: T1, hsc70 (Bos taurus, UniProt P19120); assay: UBP far-western analysis on hsc70; assay type: binding; conditions: GST fusions as probe
T1 construct: purchased Stressgen
Excerpt: FIG. 13A: Thirty μg of HeLa cell lysate was separated by SDS-PAGE in three identical lanes, blotted to nitrocellulose and probed with either, no probe (none), GST alone, or GST-UBP. The far-western blot was then developed with anti-GST antibody to reveal bands which interact with UBP. The arrow to the right indicates a 70 kD band detected by the GST-UBP fusion. The numbers to the left of each blot represent molecular weights in kilodaltons. […] FIG. 13C, Samples from the GST-UBP pull down assay were analyzed by western blot for the presence hsc70. At the bottom of the gel, the contents of each reaction are indicated by the plus symbols. The NaCl concentration of the washing buffer (100, 200, 300, and 500 mM) is indicated at the top of each lane. The arrow to the right of the blot indicates the position of the hsc70 band.
The term “hsc70” is used when referring to both hsp70 and its nearly identical constitutive counterpart, hsc70. […] The numbers to the left of the blots indicate the molecular weights in kilodaltons. The diagram below the blots indicates regions of UBP contained in each fusion construct. The column to the right summarizes the results, where a plus symbol indicates binding and a minus symbol indicates no binding.
Western blots were performed using standard techniques. Briefly, 30 μg HeLa cytoplasmic extract or 20 ng of hsc70, hsp70, or hsp90 were denatured in 1×SDS sample buffer. The samples were loaded on a 10% polyacrylamide gel. Separated protein was transferred to nitrocellulose membranes. The membranes were blocked in 5% dry milk protein in TBS (20 mM Tris [pH 7.4], 100 mM NaCl) for 45 min. The gels with proteins separated on them were transferred to nitrocellulose and blocked against 5% dry milk protein in TBS for 45 min. Primary antibody, either anti-hsp70 or hsp90 monoclonal antibodies, or anti-UBP rabbit polyclonal antibody was incubated with the blots at appropriate concentrations (1:1000 dilutions for each) in 5% milk protein in TBS for 2 hours at 4° C. with gentle rocking. The membranes were washed with TBS for 10 minutes. […]

HIV-1 = HIV-1 particle release, p24 antigen capture ELISA in transfected HeLa cells; assay type: cell-based, human immunodeficiency virus type 1; conditions: co-expression in HeLa cells
Procedure: FIG. 20B: Alternatively, HeLa cells were co-transfected with 1 μg of Vpu^+ or Vpu^− proviral genomes and 10 μg pHIV-TARluc (Luc) or pHIV-FTPR. Thirty-six hours after transfection the amount of p24 Gag in the media and cell pellets was quantified using an antigen capture ELISA. The relative particle release is given by the ratio of extracellular to intracellular p24. The data were normalized to the control (Luc). The error bars represent the error of the mean for three independent experiments.
Triplicate plates of 5×10^5 HeLa cells were transfected with 1 μg of Vpu^+ (MSMBA) or Vpu^− (DF101) proviral genomes and 10 μg of pHIV-UBP, pHIV-UBP-N, pHIV-FTPR or pHIV-TARluc. Thirty-six hrs after transfection, media were harvested and centrifuged at low-speed to remove cellular debris. The cells were washed with 1×PBS, resuspended in 1 ml of PBS, then pelleted at 5000×g in microfuge tubes. The cell pellets and media were treated with lysis buffer and applied to an HIV-1 p24 antigen assay kit following the instructions of the manufacturer (Coulter, Westbrook, Maine). Samples were processed along with positive controls to give quantitative levels of p24 Gag. Data were plotted as a function of the relative p24 units.

T1 sequence (P19120 2-650 limits assumed): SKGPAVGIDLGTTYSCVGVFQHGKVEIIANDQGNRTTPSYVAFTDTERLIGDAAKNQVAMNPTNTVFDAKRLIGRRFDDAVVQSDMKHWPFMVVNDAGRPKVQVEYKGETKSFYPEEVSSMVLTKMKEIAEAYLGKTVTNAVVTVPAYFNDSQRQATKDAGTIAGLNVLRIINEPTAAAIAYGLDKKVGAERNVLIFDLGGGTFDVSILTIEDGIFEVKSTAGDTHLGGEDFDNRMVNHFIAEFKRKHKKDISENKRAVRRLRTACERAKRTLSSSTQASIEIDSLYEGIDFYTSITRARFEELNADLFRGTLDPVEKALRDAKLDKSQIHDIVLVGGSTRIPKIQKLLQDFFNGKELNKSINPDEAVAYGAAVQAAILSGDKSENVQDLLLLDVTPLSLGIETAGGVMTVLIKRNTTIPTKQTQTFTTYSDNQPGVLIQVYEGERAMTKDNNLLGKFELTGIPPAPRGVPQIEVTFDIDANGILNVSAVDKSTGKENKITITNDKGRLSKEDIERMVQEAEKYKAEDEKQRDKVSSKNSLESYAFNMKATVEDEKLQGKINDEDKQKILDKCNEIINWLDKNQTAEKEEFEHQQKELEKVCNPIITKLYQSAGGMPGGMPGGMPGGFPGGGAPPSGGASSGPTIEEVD

Molecule	interaction with hsc70 (hsc70)	efficiency of virus particle exit (extracellular to intracellular p24 Gag) (HIV-1; Vpu present)	efficiency of virus particle exit (extracellular to intracellular p24 Gag) (HIV-1; absence of Vpu)
B1	did not detectably interact		
B2		slight increase	did not significantly increase
B3	capable of stable interaction		
B4	did not detectably interact	slight increase	did not significantly increase
